Source: patent US20230035798A1 (CAPELLA BIOSCIENCE, published 2023)
Where a chain is given by its changes, count along the chain named.

T1: recombinant human soluble LIGHT, amino acids 74-240 (R&D Systems 664-LI-025) (human, UniProt O43557 74-240)
T1 construct: range 74-240; also called 74-240 LIGHT; Soluble LIGHT 74-240
T1 chain: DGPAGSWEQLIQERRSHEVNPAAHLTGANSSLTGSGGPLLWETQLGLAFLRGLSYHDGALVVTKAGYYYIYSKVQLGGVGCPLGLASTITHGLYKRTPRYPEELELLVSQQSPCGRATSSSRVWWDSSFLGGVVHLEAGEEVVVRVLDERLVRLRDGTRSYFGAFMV

B1: 3E09 (antibody, V domains shown)
VH: EVQLVESGGGLVKPGGSLKLSCEASGFTFSDYYMYWVRQTPEKRLEWVAAIGDGGIYTYYADTVKGRFTISRDNAKNILYLQMSSLKSNDTAMYYCARGTGDGFAYWGQGTLVTVS
VL: DIVLTQSPASLAVSLGQRATISCRASESVDSYGNSFMHWYQQKPGQPPKLLIYLASNLESGVPARFSGSGSRTDFTLTIDPVEADDAATYYCQQNNEDPYTFGGGTKLEIK
notes: chimeric human IgG4 (S-to-P, L-to-E at 248), human CL; also called Parental 3E09
B2: 2E08 (antibody, human IgG4, V domains shown)
VH: QVQMKESGAELVRPGVSVKISCKGSGYTFTDYAIHWVKQSHAKTLEWIGVISTYYGDASYNQKFKGKATMTVDKSSSTAYMELARLTSDDSAIYYCARSRGEYGNYDAMDYWGQGTSVTVSS
VL: DIVLTQSPASLAVSLGQRATISCKASQSVDYDGDSYMNWYQQKPGQPPKLLIYAASNLESGIPARFSGSGSGTDFTLNIHPVEEEDAATYYCQQSNEDPLTFGAGTKLELK
notes: chimeric human IgG4 (S-to-P, L-to-E at 248), human CL; also called Parental 2E08
B3: 2B11 (antibody, human IgG4, V domains shown)
VH: B2 VH with Q1E, M4L, K5V, T44S, D89E
VL: B1 VL with L54R, V62I, D80N, A87V, N95S
notes: chimeric human IgG4 (S-to-P, L-to-E at 248), human CL; also called Parental 2B11
B4: 3A07 (antibody, human IgG4, V domains shown)
VH: QVQLQQSGAELVRPGAPVTLSCKASDYTFTDSEIHWVKQTPVHGLEWIGEIDPETGGTAYNQKFKGKATLTADKSSSTAYMELRSLTSEDSAVYYCSRETDYFFDYWGQGTTLTVSS
VL: ENVLTQSPAIMSASPGEKVTMTCSASSSVSYMYWYQQRPGSSPRLLIYDTSNLASGVPVRFSGSGSGTSYSLTISRMEAEDAATYYCQQWSSYPLTFGSGTKLEIK
notes: chimeric human IgG4 (S-to-P, L-to-E at 248), human CL; also called Parental 3A07
B5: 3B04 (antibody, human IgG4, V domains shown)
VH: B4 VH with S7P, P17S, D26G, S32Y, I34M, G57D, N61S, L83F
VL: DIQMTQTPASLSASVGETVTITCGASENIYGALNWYQRKQGKSPQLLIYGATNLADGMSSRFSGSGSGRQYSLKISSLHPDDFATYYCQNVLTTPWTFGGGTKLEIKR
notes: chimeric: mouse variable domains on human IgG4 HC (S-to-P and L-to-E at 248) and human CL; also called Parental 3B04; 3B04 chimeric
B6: 3C10 (antibody, human IgG4, V domains shown)
VH: B4 VH with Q1E, P17S
VL: B4 VL with E1D, N2V, L4M, S7T, R38K, S99A, I105L
notes: chimeric human IgG4 (S-to-P, L-to-E at 248), human CL; also called Parental 3C10
B7: 3D12 (antibody, human IgG4, V domains shown)
VH: B4 VH with S7P, P17S
VL: B5 VL with T7S, F83V, T93S
notes: chimeric: mouse variable domains on human IgG4 HC (S-to-P and L-to-E at 248) and human CL; also called Parental 3D12; 3D12 chimeric

Tests used:
[1] = molecular target: T2, human LIGHT (TNFSF14), full length, membrane-bound (214E allele) (human, UniProt O43557 1-240); assay: flow cytometry, maximum signal compared with F19 and F23
T2 construct: also called membrane LIGHT; human membrane LIGHT
Target sequence in this assay (O43557 whole entry K214E): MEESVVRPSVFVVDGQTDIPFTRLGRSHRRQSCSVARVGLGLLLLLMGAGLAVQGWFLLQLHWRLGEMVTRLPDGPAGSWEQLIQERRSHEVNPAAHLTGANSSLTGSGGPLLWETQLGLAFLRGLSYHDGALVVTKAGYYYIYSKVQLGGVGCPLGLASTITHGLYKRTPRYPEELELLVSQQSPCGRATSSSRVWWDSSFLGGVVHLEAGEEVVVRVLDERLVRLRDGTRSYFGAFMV

[2] = molecular target: T2, human LIGHT (TNFSF14), full length, …; assay: DcR3-His (1 nM) competition, EL4-LIGHT, flow cytometry; 100 nM
Description: EL4-LIGHT cells (0.25×10⁶) were preincubated with anti-membrane LIGHT mAbs (0-300 nM) for 15 min at 4° C. followed by incubation with DcR3-His tagged (1 nM, Creative BioMart; ref: TNFRSF6B-552H, lot: 962512) for 30 min at 4° C. The samples were then incubated with mouse anti-histag antibody (diluted 1:500, Biolegend, cat. no. 652502) for 30 minutes at 4° C., followed by incubation with anti-mouse APC (dil 1:500, BDBiosciences, cat. no. 550826) for 30 minutes at 4° C. The tubes were washed three times after each of the detection antibody stages and flow cytometry analysis was performed. Specific mean fluorescence intensity (MFI) obtained from the binding of DcR3-His to LIGHT on EL4 cells were used to determine the levels of competition binding.
In humans, LIGHT is neutralized by DcR3, a unique soluble member of the TNFR superfamily, which tightly binds LIGHT (both soluble and membrane forms) and inhibits its interactions with HVEM and LTβR. A major binding determinant for DcR3 neutralization is the region T170-E178 on LIGHT (Liu et al. Structure 2014: 9; 1252-1262). […] In contrast the anti-LIGHT mAb F19, (from EP2292663) which binds both soluble LIGHT and membrane LIGHT equally well completely displaces DcR3 from binding to membrane LIGHT highlighting a surprising an important functional difference between the anti-membrane LIGHT mAbs of this invention and other neutralizing anti-LIGHT mAbs that have been raised against or screened against soluble LIGHT.
Target sequence in this assay (O43557 whole entry K214E): as above

[3] = molecular target: T1, recombinant human soluble LIGHT, amino …; assay: SPR (BIAcore), as for Table 9
Description: Real-time binding interactions between captured antibody (chimeric anti-membrane LIGHT monoclonal antibody) captured on a biosensor matrix via goat anti-human Fe IgG and recombinant soluble LIGHT were measured by surface plasmon resonance (SPR) using the BIAcore system (GE Healthcare) according to manufacturer's instructions and standard procedures. Briefly, soluble LIGHT was diluted in HBS running buffer (GE Healthcare) and aliquots were injected through the immobilized protein matrices at a flow rate of […]. BIAevaluation software was used to calculate association rate (ka), dissociation rate (kd) and affinity (KD).
The specificity of further anti-membrane LIGHT mAbs to soluble LIGHT was determined by using the same BIAcore analysis discussed above which was used to generate the data in Table 9. In brief, mAbs 3B04, 3D12, 3A07, 3C10 and 2B11 were compared to various prior art antibodies, (F19 and F23 IgG4 mAbs from EP2292663 and 1C02, 13H04 and 31A10 mAbs from WO2015/107331).

[4] = molecular target: T2, human LIGHT (TNFSF14), full length, …; assay: membrane LIGHT on cells, as for Table 9
Target sequence in this assay (O43557 whole entry K214E): as above

[5] = molecular target: T2, human LIGHT (TNFSF14), full length, …; assay: soluble LIGHT 74-240 KD over membrane LIGHT KD
Target sequence in this assay (O43557 whole entry K214E): as above

[6] = molecular target: membrane LIGHT without residues 81-84 (EL4-NC-LIGHT cells) (human, UniProt O43557 1-240); assay: cell-based or functional assay
Chain of membrane LIGHT without residues 81-84 (EL4-NC-LIGHT cells) (O43557 other isoform, or with tags, fused parts or gaps): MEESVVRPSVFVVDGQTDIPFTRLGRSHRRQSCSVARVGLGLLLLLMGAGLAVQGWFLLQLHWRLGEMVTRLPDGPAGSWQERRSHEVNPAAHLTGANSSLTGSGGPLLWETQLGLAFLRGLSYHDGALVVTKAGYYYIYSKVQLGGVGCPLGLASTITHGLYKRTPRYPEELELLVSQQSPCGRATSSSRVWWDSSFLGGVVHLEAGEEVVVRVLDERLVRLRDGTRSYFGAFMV

[7] = molecular target: T2, human LIGHT (TNFSF14), full length, …; assay: flow cytometry, EL4-LIGHT cells
Target sequence in this assay (O43557 whole entry K214E): as the sequence (O43557 whole entry K214E) above

[8] = molecular target: T2, human LIGHT (TNFSF14), full length, …; assay: KD calculated from EC50 on EL4-LIGHT cells, flow cytometry
[9] = molecular target: T2, human LIGHT (TNFSF14), full length, …; assay: flow cytometry, EL4-LIGHT cells, maximum signal compared with F19 and F23
Text: FIG. 7 depicts the flow cytometry analysis of the anti-membrane LIGHT mAbs (3B04 and 3D12) binding to LIGHT stably expressed on EL4 cells. The maximum signal of the IgG4 mAbs 3B04 and 3D12 binding to membrane LIGHT is approximately 40000 MFI. In contrast anti-LIGHT mAbs F19 and F23 (IgG4 mAbs from EP2292663) gave a maximal signal of approximately 120000 MFI. The ratio of binding of mAb F19 and mAb F23 is approximately 3 times that of the anti-membrane LIGHT mAbs 3B04 and 3D12. […] Other mAbs of this invention; 2E08, 3A07, 3C10, 3E09 and 2B11 also bind LIGHT in a 1:1 ratio when compared to mAbs F19 and F23 by flow cytometry.

[10] = molecular target: T2, human LIGHT (TNFSF14), full length, …; assay: flow cytometry, mAb binding to EL4 cells stably expressing human LIGHT [lower panel]

Binder	binding ratio, mAb per LIGHT trimer [1] [mAb per LIGHT trimer]	DcR3-His binding, % of irrelevant mAb [2] [%]	Kd [3] [nM]	Kd [4] [nM]	Membrane:soluble LIGHT affinity ratio [5]	IC50, inhibition of IL-8 secretion from HT-29 cells (EL4-NC-LIGHT cells) [6] [nM]	EC50 [7] [nM]	Kd [8] [nM]	binding ratio, mAb per LIGHT trimer [9] [mAb per LIGHT trimer]	EC50 (read off the curve) [10] [nM]
B1	1	65								
B2	1	53.7								
B3	1	70.6	16	0.34	47.1					
B4	1	64.2	15.8	0.15	105					
B5		75.8	11.1	0.21	52.9	0.05	0.12	0.15	1	~0.2
B6	1	63.8	11	0.18	61.1					
B7		80.3	3.6	0.19	18.9	0.32	0.08	0.2	1	~0.2
